Experimental data reported in patent US20250269025A1 (AVENCELL THERAPEUTICS, published 2025).
Blank lines part the entries; values can stand above or below the binder they belong to. No end group written: not given here.

How the values were obtained:
[1] = molecular target: T1, La epitope 5B9 (SEQ ID No. 28) fused to human Fc domain (human, also: fused to human Fc domain, order, isotype, linker not given here); assay: SPR, Biacore X100, La epitope 5B9-human Fc on CM5 chip; KD 5B9 (second number of the cell)
T1 construct: Coupled to a CM5 sensor chip; not shown: human Fc domain
T1 chain: KPLPEVTDEY
Experimental: (§1) Furthermore, binding of different variants of the targeting module according to the invention was analyzed using the La epitope 5B9 (SEQ ID No. 28) fused to human Fc domain which was coupled to a CM5 sensor chip on a Biacore X100 device (FIG. 3). The targeting modules were purified monomers. The targeting modules were concentrated between 2.47 to 200 nM and measured in technical duplicates. For data fitting and KD calculation a two-state-reaction binding model was applied.

[2] = molecular target: T2, CD123 on CD123 positive AML cells (Oci-AML3, Molm-13, MV4-11, primary AML cells) (human, UniProt P26951 19-378); assay: cellular binding assay per table caption, Oci-AML3 cells; Oci-AML3 cells
T2 construct: whole, on cells; Endogenous CD123 on human AML cell lines; also called target antigen CD123

[3] = molecular target: T2, CD123 on CD123 positive AML cells …; assay: cellular binding assay per table caption, Molm-13 cells; Molm-13 cells
[4] = molecular target: T3, human CD123-Fc (human, UniProt P26951 19-305, limits assumed); assay: SPR, Biacore X100, human CD123-Fc on CM5 chip, 1:1 model; KD CD123 (first number of the cell)
T3 construct: Coupled to a CM5 sensor chip; also called soluble recombinant CD123; not shown: Fc part
T3 sequence (looked up): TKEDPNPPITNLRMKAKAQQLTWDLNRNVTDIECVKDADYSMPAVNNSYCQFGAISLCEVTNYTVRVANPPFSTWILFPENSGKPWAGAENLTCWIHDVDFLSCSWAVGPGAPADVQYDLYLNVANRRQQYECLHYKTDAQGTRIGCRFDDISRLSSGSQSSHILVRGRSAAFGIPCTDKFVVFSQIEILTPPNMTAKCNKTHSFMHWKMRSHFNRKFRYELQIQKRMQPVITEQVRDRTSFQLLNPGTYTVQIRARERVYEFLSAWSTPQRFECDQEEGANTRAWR
Experimental: (§2) Binding of different variants of the targeting module according to the invention was analyzed by SPR measurements using human CD123-Fc coupled to a CM5 sensor chip on a Biacore X100 device (FIG. 2). Targeting modules were purified monomer except for the targeting module according to SEQ ID No. 8. […] For data fitting and KD calculation a 1:1 binding model was applied.

[5] = molecular target: T1, La epitope 5B9 (SEQ ID No. 28) fused to …; assay: SPR, Biacore X100, La epitope 5B9-human Fc on CM5 chip
Experimental: as §1

[6] = molecular target: T3, human CD123-Fc; assay: SPR, Biacore X100, human CD123-Fc on CM5 chip, 1:1 model; TM not purified monomer
Experimental: as §2

[7] = molecular target: T2, CD123 on CD123 positive AML cells …; assay: flow cytometry on Oci-AML3 cells, anti-His-PE detection. Half-maximal binding from a four-parameter fit of gMFI. Unit taken from the concentration axis [M]. The curve has no upper plateau in the range shown
Experimental: Cellular binding of CD123-binding targeting modules (TM) was tested on CD123 positive target cell lines Oci-AML3 and Molm-13: A) SEQ ID No. 5 to Oci-AML3, B) SEQ ID No. 9 to Oci-AML3, C) SEQ ID No. 4 to Molm-13 and D) SEQ ID No. 6 to Molm-13. The affinity of TMs was analyzed by flow cytometry. The TMs were titrated on an AML cell lines and then detected by a mouse anti-His-tag antibody conjugated to phycoerythrin.
Different concentrations of R-TM123 were incubated with cells, washed and quantified. A dose-response curve was obtained when the geometric mean fluorescence (MFI) was plotted against the TM concentration.

[8] = molecular target: T3, human CD123-Fc; assay: SPR, Biacore X100, human CD123-Fc on CM5 chip, 1:1 model
Experimental: as §2

- Kd [1]: 17 nM
- EC50 [2]: 0.0032 nM
- EC50 [3]: 0.0023 nM
- Kd [4]: 0.227 nM
B1: targeting module according to SEQ ID No. 2 (reference) (bispecific antibody)
chain: EVQLQQSGPELVKPGASVKMSCKASGYTFTDYYMKWVKQSHGKSLEWIGDIIPSNGATFYNQKFKGKATLTVDRSSSTAYMHLNSLTSEDSAVYYCTRSHLLRASWFAYWGQGTLVTVSAASGGGGSGGGGSGGGGSDFVMTQSPSSLTVTAGEKVTMSCKSSQSLLNSGNQKNYLTWYLQKPGQPPKLLIYWASTRESGVPDRFTGSGSGTDFTLTISSVQAEDLAVYYCQNDYSYPYTFGGGTKLEIKAAARGQVQLVQSGAEVKKPGASVKVSCKASGYTFTHYYIYWVRQAPGQGLEWMGGVNPSNGGTHFNEKFKSRVTMTRDTSISTAYMELSRLRSDDTAVYYCARSEYDYGLGFAYWGQGTLVTVSSGGGGSGGGGSGGGGSDIVMTQSPDSLAVSLGERATINCKSSQSLLNSRTPKNYLAWYQQKPGQPPKLLIYWASTRKSGVPDRFSGSGSGTDFTLTISSLQAEDVAVYYCKQSYNLLTFGGGTKVEIKGPEQKLISEEDLNSAVDHHHHHH
notes: also called muCD123 + 5B9-VH-VL

- Kd [6]: 0.131 nM
B3: targeting module according to SEQ ID No. 8 (bispecific antibody)
chain: GQVQLVQSGAEVKKPGASVKMSCKASGYTFTDYYMKWVKQAPGQGLEWIGDIIPSNGATFYNQKFKGRATLTVDKSTSTAYMELSSLRSEDTAVYYCTRSHLLRASWFAYWGQGTLVTVSSASGGGGSGGGGSGGGGSDFVMTQSPDSLAVSLGERATMNCKSSQSLLNSGNQKNYLTWYLQKPGQPPKLLIYWASTRESGVPDRFSGSGSGTDFTLTISSVQAEDVAVYYCQNDYSYPYTFGGGTKLEIKAAARGDIVMTQSPDSLAVSLGERATINCKSSQSLLNSRTPKNYLAWYQQKPGQPPKLLIYWASTRKSGVPDRFSGSGSGTDFTLTISSLQAEDVAVYYCKQSYNLLTFGGGTKVEIKGGGGSGGGGSGASAAGGGGSGGGGSQVQLVQSGAEVKKPGASVKVSCKASGYTFTHYYIYWVRQAPGQGLEWMGGVNPSNGGTHFNEKFKSRVTMTRDTSISTAYMELSRLRSDDTAVYYCARSEYDYGLGFAYWGQGTLVTVSSGGGGSHHHHHHHH
notes: also called huCD123_3 + 5B9-VLVH

Second part, the binder before the results:

B2: targeting module according to SEQ ID No. 3 (bispecific antibody)
chain: GQVQLVQSGAEVKKPGSSVKVSCKASGYTFTDYYIHWVRQAPGQGLEWMGDIIPSNGATFYNQRFKGRVTITADESTSTAYMELSSLRSEDTAVYYCTRSHLLRASWFAYWGQGTLVTVSSASGGGGSGGGGSGGGGSDIVMTQTPLSLSVTPGQPASISCRSSQSLLNSGNQKNYLTWYLQKPGQSPQLLIYWASTRFIGVPDRFSGSGSGTDFTLKISRVEAEDVGVYYCQNDYSYPYTFGQGTKLEIKAAARGDIVMTQSPDSLAVSLGERATINCKSSQSLLNSRTPKNYLAWYQQKPGQPPKLLIYWASTRKSGVPDRFSGSGSGTDFTLTISSLQAEDVAVYYCKQSYNLLTFGGGTKVEIKGGGGSGGGGSGASAAGGGGSGGGGSQVQLVQSGAEVKKPGASVKVSCKASGYTFTHYYIYWVRQAPGQGLEWMGGVNPSNGGTHFNEKFKSRVTMTRDTSISTAYMELSRLRSDDTAVYYCARSEYDYGLGFAYWGQGTLVTVSSGGGGSHHHHHHHH
notes: also called huCD123_1 + 5B9-VL-VH
- Kd [5]: 2 nM
- EC50 [2]: 23 nM

B4: targeting module according to SEQ ID No. 9 (bispecific antibody)
chain: EVQLVQSGAEVKKPGASVKMSCKASGYTFTDYYMKWVKQAPGQGLEWIGDIIPSNGATFYNQKFKGRATLTVDRSTSTAYMELSSLRSEDTAVYYCTRSHLLRASWFAYWGQGTLVTVSSASGGGGSGGGGSGGGGSDFVMTQSPDSLAVSLGERATINCESSQSLLNTGNQKNYLTWYLQKPGQPPKLLIYWASTRESGVPDRFSGSGSGTDFTLTISSVQAEDVAVYYCQNDYSYPYTFGGGTKLEIKAAARGDIVMTQSPDSLAVSLGERATINCKSSQSLLNSRTPKNYLAWYQQKPGQPPKLLIYWASTRKSGVPDRFSGSGSGTDFTLTISSLQAEDVAVYYCKQSYNLLTFGGGTKVEIKGGGGSGGGGSGASAAGGGGSGGGGSQVQLVQSGAEVKKPGASVKVSCKASGYTFTHYYIYWVRQAPGQGLEWMGGVNPSNGGTHFNEKFKSRVTMTRDTSISTAYMELSRLRSDDTAVYYCARSEYDYGLGFAYWGQGTLVTVSSGGGGSHHHHHHHH
notes: also called huCD123_4 + 5B9-VLVH
- Kd [7]: 6.77 nM
- Kd [8]: 0.162 nM
